Reference: US20190055322A1

B1: 3E10-40GS-2B10 (VHH)
chain: EVQLVESGGGLVQAGGSLRLSCTASGHTFSSYTMGWFRQAPGKEREFVAAMTRSGFNTHYSDSVKGRFTISRDNTSRDNTKITMALQMNSLKPEDTAVYYCTTGRGLTSYVANFWGQGTQVTVSSGGGGSGGGGSGGGGSGGGGSGGGGSGGGGSGGGGSGGGGSEVQLVESGGGLVQPGGSLRLSCAASGSIFSINNMGWYRQAPGKQRELVTVVTSNLITTYADSVKGRFTISRDNAKNTVYLQMNSLKPEDTAVYYCNAWARSVGSVPYSQFWGQGTLVTVSS
B2: Nanobody 264 (1E11-40GS-2B02) (VHH)
chain: EVQLVESGGGLVQPGGSLRLSCAASGSTRSVNPMAWFRQAPGRQREWVATISRSGYATYADSVKGRFTISGDNAKSSVYLQMNSLKPEDTAVYYCVTGTYWGQGTLVTVSSGGGGSGGGGSGGGGSGGGGSGGGGSGGGGSGGGGSGGGGSEVQLVESGGGLVQPGDSLRLSCAASGRILSINNMVWYRQAPGKQRELVAHITSSGSTGYADSVKGRFTISRDNAKNTFYLQMTNLNPEDTAVYYCNCWVSSDSNAPLKNYWGQGTLVTVSS
B3: Nanobody 262 (7E09-40GS-7C10) (VHH)
chain: EVQLVESGGGLVQAGGSLRLSCAASGRTFSSYIMGWFRQAPGKAREFVADITWGQRPYYADSVKGRFTISRDNAKNTVYLEMNSLKPEDTAVYYCAADLGVVIREEHAYWGQGTLVTVSSGGGGSGGGGSGGGGSGGGGSGGGGSGGGGSGGGGSGGGGSEVQLVESGGGLVQAGGSLRLSCTASGRTLSSYTMGWFRQAPGTEREFVAAMTRSGFNTYYADSVKGRFTISRDSTENTMALQMSSLKPEDTAVYYCTAGRGLTSYRADYWGQGTLVTVSS
B4: 4G10-40GS-7C10 (VHH)
chain: EVQLVESGGGLVQAGGSLRLSCVISEDGVRNYDMGWFRQAPGKEREFVATINWSGGSTNYADSVKGRFTVSRDNAKNTMYLQMDSLKPEDTAVYYCVAAGFYNNYLRTAPNDWNDWGQGTQVTVSSGGGGSGGGGSGGGGSGGGGSGGGGSGGGGSGGGGSGGGGSEVQLVESGGGLVQAGGSLRLSCTASGRTLSSYTMGWFRQAPGTEREFVAAMTRSGFNTYYADSVKGRFTISRDSTENTMALQMSSLKPEDTAVYYCTAGRGLTSYRADYWGQGTLVTVSS
B5: Nanobody 302 (5H01-40GS-7C10) (VHH)
chain: EVQLVESGGGLVQPGGSLRLSCAASGSTLDYYAIGWFRQAPGKEREGVSCTSNSGSTYYGGSVKGRFTASRDNAKNTVYLQMNSLRPEDTAVYYCVATIGCATLGGTLDVQRYYYRGQGTLVTVSSGGGGSGGGGSGGGGSGGGGSGGGGSGGGGSGGGGSGGGGSEVQLVESGGGLVQAGGSLRLSCTASGRTLSSYTMGWFRQAPGTEREFVAAMTRSGFNTYYADSVKGRFTISRDSTENTMALQMSSLKPEDTAVYYCTAGRGLTSYRADYWGQGTLVTVSS
B6: Nanobody 087 (1E11-40GS-7C10) (VHH)
chain: EVQLVESGGGLVQPGGSLRLSCAASGSTRSVNPMAWFRQAPGRQREWVATISRSGYATYADSVKGRFTISGDNAKSSVYLQMNSLKPEDTAVYYCVTGTYWGQGTLVTVSSGGGGSGGGGSGGGGSGGGGSGGGGSGGGGSGGGGSGGGGSEVQLVESGGGLVQAGGSLRLSCTASGRTLSSYTMGWFRQAPGTEREFVAAMTRSGFNTYYADSVKGRFTISRDSTENTMALQMSSLKPEDTAVYYCTAGRGLTSYRADYWGQGTLVTVSS
B7: 3E10-40GS-5H01 (VHH)
chain: EVQLVESGGGLVQAGGSLRLSCTASGHTFSSYTMGWFRQAPGKEREFVAAMTRSGFNTHYSDSVKGRFTISRDNTSRDNTKITMALQMNSLKPEDTAVYYCTTGRGLTSYVANFWGQGTQVTVSSGGGGSGGGGSGGGGSGGGGSGGGGSGGGGSGGGGSGGGGSEVQLVESGGGLVQPGGSLRLSCAASGSTLDYYAIGWFRQAPGKEREGVSCTSNSGSTYYGGSVKGRFTASRDNAKNTVYLQMNSLRPEDTAVYYCVATIGCATLGGTLDVQRYYYRGQGTQVTVSS
B8: Nanobody 272 (11B09-40GS-10C05) (VHH)
chain: EVQLVESGGGLVQAGGSLRLSCAASRLTFNHYNMGWFRQAPGKERERVAEVTWSGDKIYYVDSVKGRFTISRDNTPNPVYLYLQMNSLKPEDTAVYYCATAPRGLPYANGYWGQGTLVTVSSGGGGSGGGGSGGGGSGGGGSGGGGSGGGGSGGGGSGGGGSEVQLVESGGGLVQPGGSLRLSCAASGSIFSINTMGWYRQAPGKQRDLVASITMNQVPNYADSVQGRFTISRDNVRNTVHLQMNAVKPEDTADYFCNAWVRSSGASPYTNYWGQGTLVTVSS
B9: Nanobody 269 (6B05-40GS-13F07) (VHH)
chain: EVQLVESGGGLVQPGGSLRLSCAASGSIFSINTMGWYRQAPGKQRELVSTITSNLVPHYADSVQGRFTISRDNARNTVYLQMNSLKPQDTAHYYCNAWARSSGATPYTNYWGQGTLVTVSSGGGGSGGGGSGGGGSGGGGSGGGGSGGGGSGGGGSGGGGSEVQLVESGGGLVQAGGSLRLSCAASGNTFSTNPMYWYRQAEGKQRELVASISSRGITNYADSVRGRFSISRDNTKDTVYLQMNSLKPEDTAVYYCRLASLSSGTVYWGKGTLVTVSS
B10: Fab 26.24 (Fab, V domains shown)
VH: EVQLVESGGGVVQPGRSLRLSCAASGFTFSNYPMHWVRQAPGKGLEWVAVISYDGSEKWYADSVKGRFTISRDNSKNTLYLEMNSLRPEDTAVYYCARNRGDIYYDFTYAMDIWGQGTTVTVSS
VL: DIQLTQSPSTLSASVGDSVTITCRASEGVDRWLAWYQQKPGRAPKLLIYDASTLQSGVPSRFSGSGSGTEFSLTISSLQPDDVATYYCQHFWGTPYTFGQGTKLEIKR
B11: Nanobody 283 (7E09-40GS-6B05) (VHH)
chain: EVQLVESGGGLVQAGGSLRLSCAASGRTFSSYIMGWFRQAPGKAREFVADITWGQRPYYADSVKGRFTISRDNAKNTVYLEMNSLKPEDTAVYYCAADLGVVIREEHAYWGQGTLVTVSSGGGGSGGGGSGGGGSGGGGSGGGGSGGGGSGGGGSGGGGSEVQLVESGGGLVQPGGSLRLSCAASGSIFSINTMGWYRQAPGKQRELVSTITSNLVPHYADSVQGRFTISRDNARNTVYLQMNSLKPQDTAHYYCNAWARSSGATPYTNYWGQGTLVTVSS
B12: Nanobody 083 (7C10-40GS-11B09) (VHH)
chain: EVQLVESGGGLVQAGGSLRLSCTASGRTLSSYTMGWFRQAPGTEREFVAAMTRSGFNTYYADSVKGRFTISRDSTENTMALQMSSLKPEDTAVYYCTAGRGLTSYRADYWGQGTLVTVSSGGGGSGGGGSGGGGSGGGGSGGGGSGGGGSGGGGSGGGGSEVQLVESGGGLVQAGGSLRLSCAASRLTFNHYNMGWFRQAPGKERERVAEVTWSGDKIYYVDSVKGRFTISRDNTPNPVYLYLQMNSLKPEDTAVYYCATAPRGLPYANGYWGQGTLVTVSS
B13: Nanobody 234 (7C10-40GS-5H01) (VHH)
chain: EVQLVESGGGLVQAGGSLRLSCTASGRTLSSYTMGWFRQAPGTEREFVAAMTRSGFNTYYADSVKGRFTISRDSTENTMALQMSSLKPEDTAVYYCTAGRGLTSYRADYWGQGTLVTVSSGGGGSGGGGSGGGGSGGGGSGGGGSGGGGSGGGGSGGGGSEVQLVESGGGLVQPGGSLRLSCAASGSTLDYYAIGWFRQAPGKEREGVSCTSNSGSTYYGGSVKGRFTASRDNAKNTVYLQMNSLRPEDTAVYYCVATIGCATLGGTLDVQRYYYRGQGTLVTVSS
B14: Nanobody 258 (13F07-40GS-14E10) (VHH)
chain: EVQLVESGGGLVQAGGSLRLSCAASGNTFSTNPMYWYRQAEGKQRELVASISSRGITNYADSVRGRFSISRDNTKDTVYLQMNSLKPEDTAVYYCRLASLSSGTVYWGKGTLVTVSSGGGGSGGGGSGGGGSGGGGSGGGGSGGGGSGGGGSGGGGSEVQLVESGGGLVQPGGSLRLSCAASGRIFSINTMGWYRQAPGKQRELVAGVTINAITNYADSVKGRFTISRDNAKNTVWLQMNSLKPEDTAVYYCHAWARSSGSAPYSQNWGQGTLVTVSS
B15: Nanobody 064 (13F07-40GS-7C10) (VHH)
chain: EVQLVESGGGLVQAGGSLRLSCAASGNTFSTNPMYWYRQAEGKQRELVASISSRGITNYADSVRGRFSISRDNTKDTVYLQMNSLKPEDTAVYYCRLASLSSGTVYWGKGTLVTVSSGGGGSGGGGSGGGGSGGGGSGGGGSGGGGSGGGGSGGGGSEVQLVESGGGLVQAGGSLRLSCTASGRTLSSYTMGWFRQAPGTEREFVAAMTRSGFNTYYADSVKGRFTISRDSTENTMALQMSSLKPEDTAVYYCTAGRGLTSYRADYWGQGTLVTVSS
B16: Nanobody 308 (6B05-40GS-1E11) (VHH)
chain: EVQLVESGGGLVQPGGSLRLSCAASGSIFSINTMGWYRQAPGKQRELVSTITSNLVPHYADSVQGRFTISRDNARNTVYLQMNSLKPQDTAHYYCNAWARSSGATPYTNYWGQGTLVTVSSGGGGSGGGGSGGGGSGGGGSGGGGSGGGGSGGGGSGGGGSEVQLVESGGGLVQPGGSLRLSCAASGSTRSVNPMAWFRQAPGRQREWVATISRSGYATYADSVKGRFTISGDNAKSSVYLQMNSLKPEDTAVYYCVTGTYWGQGTLVTVSS
B17: Nanobody 260 (1E11-40GS-2B10) (VHH)
chain: EVQLVESGGGLVQPGGSLRLSCAASGSTRSVNPMAWFRQAPGRQREWVATISRSGYATYADSVKGRFTISGDNAKSSVYLQMNSLKPEDTAVYYCVTGTYWGQGTLVTVSSGGGGSGGGGSGGGGSGGGGSGGGGSGGGGSGGGGSGGGGSEVQLVESGGGLVQPGGSLRLSCAASGSIFSINNMGWYRQAPGKQRELVTVVTSNLITTYADSVKGRFTISRDNAKNTVYLQMNSLKPEDTAVYYCNAWARSVGSVPYSQFWGQGTLVTVSS

Molecular target: PcrV of P. aeruginosa strain PA103 (on TTSS-induced bacteria) (Pseudomonas aeruginosa strain PA103)
Test: cell-based or functional assay

In order of rising % inhibition in P3X63 cytotoxicity assay, extract 1/150:
1. B9  41%
2. B11  45%
3. B2  47%
4. B3  48%
5. B6  49%
6. B1  52%
7. B16  57%
8. B17  57%
9. B12  61%
10. B13  63%
11. B8  66%
12. B5  68%
13. B14  69%
14. B15  74%
15. B4  81%
16. B7  85%

In order of falling Efficacy (%), P3X63 cytotoxicity, MOI 12:
1. B9  100%
2. B11  100%
3. B14  100%
4. B16  100%

In order of falling IC50 value (M), P3X63 cytotoxicity, MOI 12:
1. B9  8.2e-10 M
2. B16  1.8e-10 M
3. B14  9e-11 M
4. B11  7.6e-11 M

In order of falling Ratio (IC50 Fab 13.37/IC50 Nanobody), A549 cytotoxicity:
1. B9  1 fold
2. B11  1 fold
3. B14  1 fold
4. B16  0.3 fold

B10 gave a % inhibition, P3X63 cytotoxicity assay, MOI 1.5 of 100%.

For B10, the % inhibition, P3X63 cytotoxicity assay, MOI 4 was 100%.

B10 showed an IC50 (nM), P3X63 cytotoxicity assay, MOI 1.5 of 34 nM.

B10 was tested, and the IC50 (nM), P3X63 cytotoxicity assay, MOI 4 was 48 nM.
